Experimental data reported in PMC3066130, “Molecular Architecture of the Human Mediator–RNA Polymerase II–TFIIF Assembly” (PLoS Biology, 2011).

Biological target: T1, human RNA polymerase II (12-subunit enzyme) (human, UniProt P24928 1-1970; P30876 1-1174; P19387 1-275; O15514 1-142; P19388 1-210; P61218 …)
T1 construct: RPB1, largest subunit of human pol II; RPB2, subunit of human pol II; RPB3, subunit of human pol II; RPB4, subunit of human pol II; RPB5, subunit of human pol II; RPB6, subunit of human pol II; RPB7, subunit of human pol II; RPB8, subunit of human pol II; RPB9, subunit of human pol II; RPB10, subunit of human pol II; RPB11, subunit of human pol II; RPB12, subunit of human pol II; The CTD of RPB1 …
Experiment: co-sedimentation
Details: both partners purified

B1: human TFIIF (Rap74 and Rap30) (complex)
chain 1: MAALGPSSQNVTEYVVRVPKNTTKKYNIMAFNAADKVNFATWNQARLERDLSNKKIYQEEEMPESGAGSEFNRKLREEARRKKYGIVLKEFRPEDQPWLLRVNGKSGRKFKGIKKGGVTENTSYYIFTQCPDGAFEAFPVHNWYNFTPLARHRTLTAEEAEEEWERRNKVLNHFSIMQQRRLKDQDQDEDEEEKEKRGRRKASELRIHDLEDDLEMSSDASDASGEEGGRVPKAKKKAPLAKGGRKKKKKKGSDDEAFEDSDDGDFEGQEVDYMSDGSSSSQEEPESKAKAPQQEEGPKGVDEQSDSSEESEEEKPPEEDKEEEEEKKAPTPQEKKRRKDSSEESDSSEESDIDSEASSALFMAKKKTPPKRERKPSGGSSRGNSRPGTPSAEGGSTSSTLRAAASKLEQGKRVSEMPAAKRLRLDTGPQSLSGKSTPQPPSGKTTPNSGDVQVTEDAVRRYLTRKPMTTKDLLKKFQTKKTGLSSEQTVNVLAQILKRLNPERKMINDKMHFSLKE
chain 2: MAERGELDLTGAKQNTGVWLVKVPKYLSQQWAKASGRGEVGKLRIAKTQGRTEVSFTLNEDLANIHDIGGKPASVSAPREHPFVLQSVGGQTLTVFTESSSDKLSLEGIVVQRAECRPAASENYMRLKRLQIEESSKPVRLSQQLDKVVTTNYKPVANHQYNIEYERKKKEDGKRARADKQHVLDMLFSAFEKHQYYNLKDLVDITKQPVVYLKEILKEIGVQNVKGIHKNTWELKPEYRHYQGEEKSD
notes: Rap74, large subunit of human TFIIF; Rap30, small subunit of human TFIIF; also called dimeric TFIIF complex
B1: binds.
